The assay has as its target catalase from Serratia sp. strain I1P (Serratia sp. strain I1P). Kind of assay: SEC; Superdex-200 in 50 mM Tris HCl pH 8.0 with 0.2 M NaCl, calibrated with standard proteins; native apparent mass compared with the subunit mass by SDS-PAGE. On the technique in general: Size exclusion chromatography separates by hydrodynamic size, large species first.

One may read the stoichiometry N as a count of units in the complex or per binding partner.

Regarding “catalase from Serratia sp. strain I1P (enzyme)”, the stoichiometry N worked out at 4.

The values above are taken from paper PMC7022778.
